Laboratory results published in paper PMC10933344, “A lncRNA Dleu2-encoded peptide relieves autoimmunity by facilitating Smad3-mediated Treg induction” (EMBO Reports, 2024).
Where no end group is shown, it is not given here.

Biological target: T1, Smad3, recombinant (pET28a) (UniProt Q8BUN5 1-425)
T1 construct: the His tag is inferred from the vector only; also called free Smad3; source: bacterial overexpression (pET28a), purified
Assay: BLI; Octet RED96; 50 ug/ml Biotin-labeled Dleu2-17aa immobilised on streptavidin biosensors; 100 mM Tris-HCl pH 8.0, 20 mM MgCl2, 200 mM KCl, 0.1 mg/mL BSA; Smad3 at 1.67-53.3 uM, association 800 s, dissociation in DPBS (0.5% BSA) 180 s; RT
Settings: both partners purified

T1 sequence (Q8BUN5 whole entry): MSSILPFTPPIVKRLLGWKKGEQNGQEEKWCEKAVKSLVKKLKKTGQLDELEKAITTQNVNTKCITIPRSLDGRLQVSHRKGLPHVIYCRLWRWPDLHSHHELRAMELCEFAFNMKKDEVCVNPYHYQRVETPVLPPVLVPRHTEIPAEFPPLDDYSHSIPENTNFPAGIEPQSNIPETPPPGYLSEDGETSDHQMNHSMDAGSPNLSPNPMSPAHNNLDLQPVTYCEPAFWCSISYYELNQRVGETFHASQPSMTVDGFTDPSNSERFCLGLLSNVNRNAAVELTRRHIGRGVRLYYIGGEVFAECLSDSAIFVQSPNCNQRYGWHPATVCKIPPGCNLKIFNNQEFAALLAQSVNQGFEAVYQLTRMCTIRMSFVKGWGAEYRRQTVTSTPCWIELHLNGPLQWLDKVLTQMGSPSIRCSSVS

B1: Biotin-labeled Dleu2-17aa (peptide)
peptide: MLGRRARRRGRGRRRPA
modifications: also: biotin-labeled, position not given here
notes: Dleu2-17aa, 17-amino-acid micropeptide encoded by a short ORF in the first exon of the mouse lncRNA Dleu2; also called Biotin-Dleu2-17aa; biotinylated Dleu2-17aa
Kd: 2.43 µM
